Measured values as given in PMC10801562 (Antibodies, 2024).

T1: recombinant human CD3ε-CD3δ heterodimeric protein (CD3εδ) (Homo sapiens)
T1 construct: human CD3ε of the recombinant CD3εδ heterodimer; human CD3δ of the recombinant CD3εδ heterodimer; source: in-house prepared
T1 chain 1: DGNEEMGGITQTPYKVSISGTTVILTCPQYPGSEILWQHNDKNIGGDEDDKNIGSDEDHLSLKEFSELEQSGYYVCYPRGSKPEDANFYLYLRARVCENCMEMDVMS
T1 chain 2: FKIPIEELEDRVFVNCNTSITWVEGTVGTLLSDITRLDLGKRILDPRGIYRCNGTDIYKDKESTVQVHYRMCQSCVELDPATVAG

B1: mHIT3a mIgG2a, homodimeric antibody without FAST-Ig mutations (antibody, V domains shown)
VH: QVQLQESGAELARPGASVKMSCKASGYTFTRYTMHWVKQRPGQGLEWIGYINPSRGYTNYNQKFKDKATLTTDKSSSTAYMELTRLTSEDSAVYYCARYYDDHYCLDYWGQGTTVTVSS
VL: DIELTQSPAIMSASPGEKVTMTCSASSSVSYMNWYQQKSGTSPKRWIYDTSKLASGVPARFSGSGSGTSYSLTISGMEAEDAATYYCQQWSSNPFTFGSGTKLELK
notes: VH of the original mouse antibody mHIT3a; mouse IgG2a (mIgG2a) heavy chain constant region; numbers count on: Eu numbering; VL of the original mouse antibody mHIT3a; mouse kappa light chain constant region (CL); Whole IgG of one HC and one LC; also called anti-CD3; H2L2H2L2; source: Expi293F, transiently expressed, purified (Ab-Capcher MAG2, MonoSpin ProA or MonoSpin ProG); copies: 2 + 2
B2: mHIT3a mIgG2a V1+C19, homodimeric antibody with FAST-Ig V1+C19 mutations (antibody, V domains shown)
VH: QVQLQESGAELARPGASVKMSCKASGYTFTRYTMHWVKERPGQGLEWIGYINPSRGYTNYNQKFKDKATLTTDKSSSTAYMELTRLTSEDSAVYYCARYYDDHYCLDYWGQGTTVTVSS
VL: DIELTQSPAIMSASPGEKVTMTCSASSSVSYMNWYQKKSGTSPKRWIYDTSKLASGVPARFSGSGSGTSYSLTISGMEAEDAATYYCQQWSSNPFTFGSGTKLELK
notes: VH of mHIT3a; mouse IgG2a (mIgG2a) heavy chain constant region; numbers count on: Eu numbering; VL of mHIT3a; mouse kappa light chain constant region (CL); numbers count on: Kabat numbering; Whole IgG of one HC and one LC; also called anti-CD3; H2L2H2L2; source: Expi293F, transiently expressed, purified (Ab-Capcher MAG2, MonoSpin ProA or MonoSpin ProG); copies: 2 + 2
B3: m4D5 mIgG1, homodimeric antibody without FAST-Ig mutations (antibody, V domains shown)
VH: QVQLQQSGPELVKPGASLKLSCTASGFNIKDTYIHWVKQRPEQGLEWIGRIYPTNGYTRYDPKFQDKATITADTSSNTAYLQVSRLTSEDTAVYYCSRWGGDGFYAMDYWGQGASVTVSS
VL: DIVMTQSHKFMSTSVGDRVSITCKASQDVNTAVAWYQQKPGHSPKLLIYSASFRYTGVPDRFTGSRSGTDFTFTISSVQAEDLAVYYCQQHYTTPPTFGGGTKVEIK
notes: VH of the original mouse antibody m4D5; mouse IgG1 (mIgG1) heavy chain constant region; numbers count on: Eu numbering; VL of m4D5; mouse kappa light chain constant region (CL); Whole IgG of one HC and one LC; also called anti-HER2; H1L1H1L1; source: Expi293F, transiently expressed, purified (Ab-Capcher MAG2 or MonoSpin ProG); copies: 2 + 2
B4: m4D5 mIgG1 V1+C19, homodimeric antibody with FAST-Ig V1+C19 mutations (antibody, V domains shown)
VH: QVQLQQSGPELVKPGASLKLSCTASGFNIKDTYIHWVKKRPEQGLEWIGRIYPTNGYTRYDPKFQDKATITADTSSNTAYLQVSRLTSEDTAVYYCSRWGGDGFYAMDYWGQGASVTVSS
VL: DIVMTQSHKFMSTSVGDRVSITCKASQDVNTAVAWYQEKPGHSPKLLIYSASFRYTGVPDRFTGSRSGTDFTFTISSVQAEDLAVYYCQQHYTTPPTFGGGTKVEIK
notes: VH of m4D5; mouse IgG1 (mIgG1) heavy chain constant region; K147 kept; numbers count on: Eu numbering; VL of m4D5; mouse kappa light chain constant region (CL); numbers count on: Kabat numbering; Whole IgG of one HC and one LC; also called anti-HER2; H1L1H1L1; source: Expi293F, transiently expressed, purified (Ab-Capcher MAG2 or MonoSpin ProG); copies: 2 + 2
B5: m4D5 mIgG2a, homodimeric antibody without FAST-Ig mutations (antibody, V domains shown)
VH: QVQLQQSGPELVKPGASLKLSCTASGFNIKDTYIHWVKQRPEQGLEWIGRIYPTNGYTRYDPKFQDKATITADTSSNTAYLQVSRLTSEDTAVYYCSRWGGDGFYAMDYWGQGASVTVSS
VL: DIVMTQSHKFMSTSVGDRVSITCKASQDVNTAVAWYQQKPGHSPKLLIYSASFRYTGVPDRFTGSRSGTDFTFTISSVQAEDLAVYYCQQHYTTPPTFGGGTKVEIK
notes: VH of the original mouse antibody m4D5; mouse IgG2a (mIgG2a) heavy chain constant region; numbers count on: Eu numbering; VL of m4D5; mouse kappa light chain constant region (CL); Whole IgG of one HC and one LC; also called anti-HER2; H1L1H1L1; source: Expi293F, transiently expressed, purified (Ab-Capcher MAG2, MonoSpin ProA or MonoSpin ProG); copies: 2 + 2
B6: m4D5 mIgG2a V1+C19, homodimeric antibody with FAST-Ig V1+C19 mutations (antibody, V domains shown)
VH: QVQLQQSGPELVKPGASLKLSCTASGFNIKDTYIHWVKKRPEQGLEWIGRIYPTNGYTRYDPKFQDKATITADTSSNTAYLQVSRLTSEDTAVYYCSRWGGDGFYAMDYWGQGASVTVSS
VL: DIVMTQSHKFMSTSVGDRVSITCKASQDVNTAVAWYQEKPGHSPKLLIYSASFRYTGVPDRFTGSRSGTDFTFTISSVQAEDLAVYYCQQHYTTPPTFGGGTKVEIK
notes: VH of m4D5; mouse IgG2a (mIgG2a) heavy chain constant region; K147 kept; numbers count on: Eu numbering; VL of m4D5; mouse kappa light chain constant region (CL); numbers count on: Kabat numbering; Whole IgG of one HC and one LC; also called anti-HER2; H1L1H1L1; source: Expi293F, transiently expressed, purified (Ab-Capcher MAG2, MonoSpin ProA or MonoSpin ProG); copies: 2 + 2
B7: m2C4 mIgG2a, homodimeric antibody without FAST-Ig mutations (antibody, V domains shown)
VH: EVQLQQSGPELVKPGTSVKISCKASGFTFTDYTMDWVKQSHGKSLEWIGDVNPNSGGSIYNQRFKGKASLTVDRSSRIVYMELRSLTFEDTAVYYCARNLGPSFYFDYWGQGTTLTVSS
VL: DTVMTQSHKIMSTSVGDRVSITCKASQDVSIGVAWYQQRPGQSPKLLIYSASYRYTGVPDRFTGSGSGTDFTFTISSVQAEDLAVYYCQQYYIYPYTFGGGTKLEIK
notes: VH of the original mouse antibody m2C4; mouse IgG2a (mIgG2a) heavy chain constant region; numbers count on: Eu numbering; VL of the original mouse antibody m2C4; mouse kappa light chain constant region (CL); Whole IgG of one HC and one LC; also called anti-HER2; H1L1H1L1; source: Expi293F, transiently expressed, purified (Ab-Capcher MAG2, MonoSpin ProA or MonoSpin ProG); copies: 2 + 2
B8: m2C4 mIgG1, homodimeric antibody without FAST-Ig mutations (antibody, V domains shown)
VH: EVQLQQSGPELVKPGTSVKISCKASGFTFTDYTMDWVKQSHGKSLEWIGDVNPNSGGSIYNQRFKGKASLTVDRSSRIVYMELRSLTFEDTAVYYCARNLGPSFYFDYWGQGTTLTVSS
VL: DTVMTQSHKIMSTSVGDRVSITCKASQDVSIGVAWYQQRPGQSPKLLIYSASYRYTGVPDRFTGSGSGTDFTFTISSVQAEDLAVYYCQQYYIYPYTFGGGTKLEIK
notes: VH of the original mouse antibody m2C4; mouse IgG1 (mIgG1) heavy chain constant region; numbers count on: Eu numbering; VL of the original mouse antibody m2C4; mouse kappa light chain constant region (CL); Whole IgG of one HC and one LC; also called anti-HER2; H1L1H1L1; source: Expi293F, transiently expressed, purified (Ab-Capcher MAG2 or MonoSpin ProG); copies: 2 + 2
B9: m2C4 mIgG1 V1+C19, homodimeric antibody with FAST-Ig V1+C19 mutations (antibody, V domains shown)
VH: EVQLQQSGPELVKPGTSVKISCKASGFTFTDYTMDWVKKSHGKSLEWIGDVNPNSGGSIYNQRFKGKASLTVDRSSRIVYMELRSLTFEDTAVYYCARNLGPSFYFDYWGQGTTLTVSS
VL: DTVMTQSHKIMSTSVGDRVSITCKASQDVSIGVAWYQERPGQSPKLLIYSASYRYTGVPDRFTGSGSGTDFTFTISSVQAEDLAVYYCQQYYIYPYTFGGGTKLEIK
notes: VH of m2C4; mouse IgG1 (mIgG1) heavy chain constant region; K147 kept; numbers count on: Eu numbering; VL of m2C4; mouse kappa light chain constant region (CL); numbers count on: Kabat numbering; Whole IgG of one HC and one LC; also called anti-HER2; H1L1H1L1; source: Expi293F, transiently expressed, purified (Ab-Capcher MAG2 or MonoSpin ProG); copies: 2 + 2
B10: m2C4 mIgG2a V1+C19, homodimeric antibody with FAST-Ig V1+C19 mutations (antibody, V domains shown)
VH: EVQLQQSGPELVKPGTSVKISCKASGFTFTDYTMDWVKKSHGKSLEWIGDVNPNSGGSIYNQRFKGKASLTVDRSSRIVYMELRSLTFEDTAVYYCARNLGPSFYFDYWGQGTTLTVSS
VL: DTVMTQSHKIMSTSVGDRVSITCKASQDVSIGVAWYQERPGQSPKLLIYSASYRYTGVPDRFTGSGSGTDFTFTISSVQAEDLAVYYCQQYYIYPYTFGGGTKLEIK
notes: VH of m2C4; mouse IgG2a (mIgG2a) heavy chain constant region; K147 kept; numbers count on: Eu numbering; VL of m2C4; mouse kappa light chain constant region (CL); numbers count on: Kabat numbering; Whole IgG of one HC and one LC; also called anti-HER2; H1L1H1L1; source: Expi293F, transiently expressed, purified (Ab-Capcher MAG2, MonoSpin ProA or MonoSpin ProG); copies: 2 + 2

Target: T1, recombinant human CD3ε-CD3δ …
Assay: SPR; Biacore T200, 37 °C, pH 7.4, PB-P+; antibody captured (630 RU) by anti-mouse IgG (Fc) antibody on a CM4 chip; human CD3εδ as analyte, 18.8-19,200 nmol/L (mHIT3a, mOKT3) or 75-76,800 nmol/L (m12F6); steady state model
Conditions: both partners purified

B1 and B2 are the same in Kd: 10400 nM for the first, 10400 nM for the second.

Each binder was assayed against T2, recombinant human HER2 (Sino Biological, 10004-H08H) (Homo sapiens, UniProt P04626) (assay: SPR; Biacore T200, 37 °C, pH 7.4, PB-P+ (0.05 mol/L Na-phosphate, 0.15 mol/L NaCl, 0.05% P-20); antibody captured (200 RU) by anti-mouse IgG (Fc) antibody on a CM4 chip; human HER2 as analyte, 6.3-100 nmol/L; 1:1 binding model). Conditions: both partners purified.
T2 construct: human epidermal growth factor receptor 2 (HER2), recombinant; also called human epidermal growth factor receptor 2; source: bought: Sino Biological

B3 and B4 are within 1.5-fold of each other in Kd: 1.03 nM for the first, 1.27 nM for the second.

B5 and B6 are within 1.5-fold of each other in Kd: 1.14 nM for the first, 0.96 nM for the second.

B7 and B8 are within 1.5-fold of each other in Kd: 1.08 nM for the first, 0.759 nM for the second.

First: B9
Second: B10
The Kd of the first is 1.7-fold lower: 0.784 nM for the first, 1.36 nM for the second. The first binds more tightly here.
